Experimental data published in PMC9279676, “ERK2 MAP kinase regulates SUFU binding by multisite phosphorylation of GLI1” (Life Science Alliance, 2022).

Experiments:
[1] = target: T1, full-length GLI1 S102E S116E S130E, 35S-radiolabeled (human, UniProt P08151-1 1-1106, S102E | S116E | S130E, [35S]-methionine label); assay: pull-down; purified GST-SUFU, 1.25-80 nM, captured on glutathione-Sepharose beads; ∼1 pmol 35S-GLI1 (1-232 or full length) in 200 μl; 15 min at 30°C, then 1 h at room temperature; Binding Buffer + 1 mg/ml BSA; bound GLI1 quantified by SDS-PAGE and Phosphorimager; Kd from binding isotherms; details: one partner purified
T1 construct: human GLI1, full length (1,106 residues); also called FL-GLI1^EEE; GLI1^EEE; source: in vitro transcription/translation, partially purified by ammonium sulfate precipitation
T1 sequence (looked up): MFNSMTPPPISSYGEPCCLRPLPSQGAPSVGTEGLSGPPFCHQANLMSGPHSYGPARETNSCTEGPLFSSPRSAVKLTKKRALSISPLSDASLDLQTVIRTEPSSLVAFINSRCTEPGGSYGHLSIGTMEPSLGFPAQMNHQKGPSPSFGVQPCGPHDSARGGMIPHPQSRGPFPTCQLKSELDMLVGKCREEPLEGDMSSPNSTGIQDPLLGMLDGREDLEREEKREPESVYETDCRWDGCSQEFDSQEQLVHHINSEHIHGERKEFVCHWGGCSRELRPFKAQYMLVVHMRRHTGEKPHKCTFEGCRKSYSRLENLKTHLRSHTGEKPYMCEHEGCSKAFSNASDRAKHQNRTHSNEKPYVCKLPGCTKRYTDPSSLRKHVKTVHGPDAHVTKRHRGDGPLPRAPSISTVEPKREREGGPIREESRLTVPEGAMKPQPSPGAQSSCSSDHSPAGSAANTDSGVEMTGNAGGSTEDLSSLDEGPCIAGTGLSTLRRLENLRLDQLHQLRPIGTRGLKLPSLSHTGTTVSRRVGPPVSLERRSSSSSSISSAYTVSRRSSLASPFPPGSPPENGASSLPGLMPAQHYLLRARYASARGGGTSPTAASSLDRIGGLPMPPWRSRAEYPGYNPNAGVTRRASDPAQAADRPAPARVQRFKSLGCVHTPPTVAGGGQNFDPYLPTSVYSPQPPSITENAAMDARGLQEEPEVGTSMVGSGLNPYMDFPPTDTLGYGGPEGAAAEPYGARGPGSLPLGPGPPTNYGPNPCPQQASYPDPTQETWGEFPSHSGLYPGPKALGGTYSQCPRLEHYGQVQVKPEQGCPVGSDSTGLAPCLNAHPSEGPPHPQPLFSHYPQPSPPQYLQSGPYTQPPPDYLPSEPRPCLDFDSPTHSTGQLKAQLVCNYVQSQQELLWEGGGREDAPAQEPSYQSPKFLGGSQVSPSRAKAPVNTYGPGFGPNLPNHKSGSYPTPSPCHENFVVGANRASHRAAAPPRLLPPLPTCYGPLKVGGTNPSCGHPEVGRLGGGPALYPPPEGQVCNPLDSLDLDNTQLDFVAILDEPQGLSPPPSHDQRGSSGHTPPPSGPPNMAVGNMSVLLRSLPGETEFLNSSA

[2] = target: T2, full-length GLI1^G122A,H123A, 35S-radiolabeled (human, UniProt P08151-1 1-1106, G122A | H123A, [35S]-methionine label); assay: as above; details: one partner purified
T2 construct: human GLI1, full length (1,106 residues); also called G122A, H123A double substitution; source: in vitro transcription/translation, partially purified by ammonium sulfate precipitation
T2 sequence (looked up): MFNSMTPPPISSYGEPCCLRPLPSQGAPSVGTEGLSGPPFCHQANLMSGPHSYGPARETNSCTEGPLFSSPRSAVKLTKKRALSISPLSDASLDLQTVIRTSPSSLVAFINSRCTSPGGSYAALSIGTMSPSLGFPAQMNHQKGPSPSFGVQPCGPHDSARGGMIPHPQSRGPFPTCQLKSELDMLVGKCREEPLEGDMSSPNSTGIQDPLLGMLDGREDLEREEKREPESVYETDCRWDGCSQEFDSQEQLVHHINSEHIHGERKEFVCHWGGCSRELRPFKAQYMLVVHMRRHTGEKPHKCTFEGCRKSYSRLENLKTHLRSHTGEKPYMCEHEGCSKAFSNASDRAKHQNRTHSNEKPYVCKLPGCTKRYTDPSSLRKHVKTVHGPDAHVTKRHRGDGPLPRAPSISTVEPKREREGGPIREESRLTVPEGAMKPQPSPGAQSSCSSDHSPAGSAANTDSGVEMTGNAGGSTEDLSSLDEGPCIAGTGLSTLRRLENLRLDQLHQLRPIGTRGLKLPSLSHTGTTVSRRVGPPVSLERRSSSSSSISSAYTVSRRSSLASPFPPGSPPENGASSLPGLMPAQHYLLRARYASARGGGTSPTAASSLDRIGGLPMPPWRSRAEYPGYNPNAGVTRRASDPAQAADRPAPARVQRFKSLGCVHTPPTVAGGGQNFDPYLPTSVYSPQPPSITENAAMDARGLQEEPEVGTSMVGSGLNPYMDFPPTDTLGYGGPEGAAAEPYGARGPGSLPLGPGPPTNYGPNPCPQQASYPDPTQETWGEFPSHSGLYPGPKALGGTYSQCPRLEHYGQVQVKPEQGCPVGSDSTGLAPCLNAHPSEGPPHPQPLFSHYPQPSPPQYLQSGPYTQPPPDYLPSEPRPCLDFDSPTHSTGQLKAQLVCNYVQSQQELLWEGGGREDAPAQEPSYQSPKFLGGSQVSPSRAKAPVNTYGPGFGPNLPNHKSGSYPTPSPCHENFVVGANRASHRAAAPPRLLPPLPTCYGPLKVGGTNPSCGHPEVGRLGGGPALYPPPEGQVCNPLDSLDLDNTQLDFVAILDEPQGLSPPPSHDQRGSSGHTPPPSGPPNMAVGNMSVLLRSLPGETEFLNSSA

B1: GST-SUFU (fusion of GST to full-length human SUFU) (natural protein, UniProt Q9UMX1-1 1-484, looked up)
chain: MAELRPSGAPGPTAPPAPGPTAPPAFASLFPPGLHAIYGECRRLYPDQPNPLQVTAIVKYWLGGPDPLDYVSMYRNVGSPSANIPEHWHYISFGLSDLYGDNRVHEFTGTDGPSGFGFELTFRLKRETGESAPPTWPAELMQGLARYVFQSENTFCSGDHVSWHSPLDNSESRIQHMLLTEDPQMQPVQTPFGVVTFLQIVGVCTEELHSAQQWNGQGILELLRTVPIAGGPWLITDMRRGETIFEIDPHLQERVDKGIETDGSNLSGVSAKCAWDDLSRPPEDDEDSRSICIGTQPRRLSGKDTEQIRETLRRGLEINSKPVLPPINPQRQNGLAHDRAPSRKDSLESDSSTAIIPHELIRTRQLESVHLKFNQESGALIPLCLRGRLLHGRHFTYKSITGDMAITFVSTGVEGAFATEEHPYAAHGPWLQILLTEEFVEKMLEDLEDLTSPEEFKLPKEYSWPEKKLKVSILPDVVFDSPLH
notes: human SUFU, full length (residues 1-484), BamHI-SUFU-SalI cassette in pGEX-LB; pGEX-LB carries a Gly-Gly-Gly-Gly-Gly-Ser-Gly stretch between GST and the fused protein; also called full-length GST-SUFU; source: Escherichia coli, purified (glutathione-Sepharose); not shown: GST, N-terminal, kept
- Kd [1]: 42 ± 8 nM
- Kd [2]: 120 ± 35 nM
